This note sets out measurements from doi:10.1101/2021.12.16.472899 (bioRxiv, 2021).

Sequences and labels used below:
T1: NdhA (Arabidopsis thaliana (endogenous in the …, UniProt Q37165 1-360))
T1 sequence (looked up): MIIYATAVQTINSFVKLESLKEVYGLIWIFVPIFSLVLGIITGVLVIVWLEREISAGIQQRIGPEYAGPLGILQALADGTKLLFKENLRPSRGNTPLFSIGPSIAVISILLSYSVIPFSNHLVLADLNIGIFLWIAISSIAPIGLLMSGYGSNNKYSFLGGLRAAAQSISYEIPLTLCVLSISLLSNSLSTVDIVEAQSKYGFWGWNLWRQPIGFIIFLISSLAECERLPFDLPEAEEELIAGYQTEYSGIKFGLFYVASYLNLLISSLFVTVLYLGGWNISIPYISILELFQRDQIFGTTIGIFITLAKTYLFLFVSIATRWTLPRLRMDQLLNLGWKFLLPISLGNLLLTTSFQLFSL

B1: PnsL1 (natural protein, UniProt O80634 81-238, looked up)
chain: AEEIPKSYSPFVDREDGYSYYYPSDWREFDFRAHDSAFKDRYLQLQNVRVRFIPTEKNDIHEVGPMEEVVYDLVKHKFAAPNQVATIYDMKERVEDGKNYYTFEYGLRTPIYATTSFATVAVGNNRYYTLIVGANERRWRKVKKQLQVVADSLKILQI
B2: PnsB1 (natural protein, UniProt Q9S9N6 45-461, looked up)
chain: VNLKKKNNPWLDPFDSGEDPDNEYGSLFADGKQDEDPRPPDNPDNPYGFLKFPKGYTVELASLPLKIRGDVRRCCCVISGGVYENLLFFPTIQLIKDRYPGVQVDILTTERGKQTYELNKNVRWANVYDPDDHWPEPAEYTDMIGLLKGRYYDMVLSTKLAGLGHAAFLFMTTARDRVSYIYPNVNSAGAGLMLSETFTAENTNLSELGYSMYTQMEDWLGRPFRSVPRTPLLPLRVSISRKVKEVVAAKYRNAGAVTGKFIVIHGIESDSKASMQSKGDADSLLSLEKWAKIIKGVRGFKPVFVIPHEKERENVEDFVGDDTSIVFITTPGQLAALINDSAGVIATNTAAIQLANARDKPCIGLFSSEEKGKLFVPYAEEKSNCVIIASKTGKLADIDIGTVKNAMQVFEGSLALV
B3: Lhca5 (natural protein, UniProt Q9C639 33-256, looked up)
chain: AAGGGINPTVAVERATWLPGLNPPPYLDGNLAGDYGFDPLGLGEDPESLKWYVQAELVHSRFAMLGVAGILFTDLLRTTGIRNLPVWYEAGAVKFDFASTKTLIVVQFLLMGFAETKRYMDFVSPGSQAKEGSFFFGLEAALEGLEPGYPGGPLLNPLGLAKDVQNAHDWKLKEIKNGRLAMMAMLGFFVQASVTHTGPIDNLVEHLSNPWHKTIIQTLFTSTS
B4: PnsL2 (natural protein, UniProt Q9XI73 69-190, looked up)
chain: WGTRSFIKEKYFMPGLSPEDAAARIKQTAEGLRDMREMLDHMSWRYVIFYIRLKQAYLSQDLTNAMNILPESRRNDYVQAANELVENMSELDFYVRTPKVYESYLYYEKTLKSIDNVVEFLA
B5: PnsL5 (natural protein)
chain: not shown
B6: Lhca6 (natural protein, UniProt Q8LCQ4 34-270, looked up)
chain: SSTGGRLMRERLVVVRAGKEVSSVCEPLPPDRPLWFPGSSPPEWLDGSLPGDFGFDPLGLGSDPDTLKWFAQAELIHSRWAMLAVTGIIIPECLERLGFIENFSWYDAGSREYFADSTTLFVAQMVLMGWAEGRRWADLIKPGSVDIEPKYPHKVNPKPDVGYPGGLWFDFMMWGRGSPEPVMVLRTKEIKNGRLAMLAFLGFCFQATYTSQDPIENLMAHLADPGHCNVFSAFTSH
B7: Lhca2 (natural protein, UniProt Q9SYW8 44-257, looked up)
chain: RAVAADPDRPIWFPGSTPPEWLDGSLPGDFGFDPLGLSSDPDSLKWNVQAEIVHCRWAMLGAAGIFIPEFLTKIGILNTPSWYTAGEQEYFTDKTTLFVVELILIGWAEGRRWADIIKPGSVNTDPVFPNNKLTGTDVGYPGGLWFDPLGWGSGSPAKLKELRTKEIKNGRLAMLAVMGAWFQHIYTGTGPIDNLFAHLADPGHATIFAAFTPK
B8: NdhD (natural protein, UniProt P26288 1-500, looked up)
chain: MNDFPWLTIIVVFPISAGSLMLFLPHRGNKVNKWYTICICILELLLTTYAFCYNFKMDDPLIQLSEDYKWIDFFDFYWRMGIDGLSIGTILLTGFITTLATLAAFPVTRDSRFFHFLMLAMYSGQIGSFSSRDLLLFFIMWELELIPVYLLLSMWGGKKRLYSATKFILYTAGSSIFLLIGVLGISLYGSNEPTLNLELLANKSYPVTLEILFYIGFLIAFAVKSPIIPLHTWLPDTHGEAHYSTCMLLAGILLKMGAYGLVRINMELLPHAHSMFSPWLLVVGTIQIIYAASTSPGQRNLKKRIAYSSVSHMGFIIIGISSITDPGLNGAILQIISHGFIGAALFFLAGTSYDRIRLVYLDEMGGMAISIPKIFTMFTILSMASLALPGMSGFIAEFIVFFGIITSQKYFLISKIFIIFVMAIGMILTPIYLLSMLRQMFYGYKLINIKNFSFFDSGPRELFLSISILLPIIGIGIYPDFVLSLASDKVESILSNYFYG
B9: PnsB2 (natural protein, UniProt Q94AQ8 18-348, looked up)
chain: SSISAPQTQTINTEKLEDKFGRKGIKFSESNNIPMVELKVRNGSSLKLSLSDAHVLSYKPKVYWKDEGFEEVLYTVDGDESRGGVGVVIVNGEEPKGGSSVISGCDWSVKDTDSDAIDALQIELSCTAGVLDITYIVSLYPVSMATALVVKNNGRKPVTLKPGIMSYLRFKKRSGAGIQGLKGCSYCPNPPLSSPFELLSPSEAMKAESSGWFGSEEGEKPGIWAVEDSVITLLEKKMSRIYGAPPAERLKAVYNTPPSKFETIDQGRGLFFRMIRIGFEEMYVGSPGSMWDKYGKQHYFVCTGPTSMLVPVDVASGETWRGAMVIEHDNL
B10: PnsB3 (natural protein, UniProt Q9LU21 49-204, looked up)
chain: AISTAPASQPPAADEPDEPPAVDFAFVHSVLLPDGTPDVHWRRANGGQKLRDIMLDSNIELYGPYSKPLSNCAGVGTCATCMVEIVNGKELLNPRTDIEKEKLKRKPKNWRLACQTNVGNPDSTGLVVIQQLPEWKAHEWNIPKNIPNDDDLETST

Common to all, as to test: cryo-EM structure
For one assay, the target named is T1, NdhA.
For the assay “NdhD”, the target named is B8.
In a further assay the target is NdhF (Arabidopsis thaliana (endogenous in the …, UniProt P56752 1-746)).
Chain of NdhF (Arabidopsis thaliana (P56752 whole entry): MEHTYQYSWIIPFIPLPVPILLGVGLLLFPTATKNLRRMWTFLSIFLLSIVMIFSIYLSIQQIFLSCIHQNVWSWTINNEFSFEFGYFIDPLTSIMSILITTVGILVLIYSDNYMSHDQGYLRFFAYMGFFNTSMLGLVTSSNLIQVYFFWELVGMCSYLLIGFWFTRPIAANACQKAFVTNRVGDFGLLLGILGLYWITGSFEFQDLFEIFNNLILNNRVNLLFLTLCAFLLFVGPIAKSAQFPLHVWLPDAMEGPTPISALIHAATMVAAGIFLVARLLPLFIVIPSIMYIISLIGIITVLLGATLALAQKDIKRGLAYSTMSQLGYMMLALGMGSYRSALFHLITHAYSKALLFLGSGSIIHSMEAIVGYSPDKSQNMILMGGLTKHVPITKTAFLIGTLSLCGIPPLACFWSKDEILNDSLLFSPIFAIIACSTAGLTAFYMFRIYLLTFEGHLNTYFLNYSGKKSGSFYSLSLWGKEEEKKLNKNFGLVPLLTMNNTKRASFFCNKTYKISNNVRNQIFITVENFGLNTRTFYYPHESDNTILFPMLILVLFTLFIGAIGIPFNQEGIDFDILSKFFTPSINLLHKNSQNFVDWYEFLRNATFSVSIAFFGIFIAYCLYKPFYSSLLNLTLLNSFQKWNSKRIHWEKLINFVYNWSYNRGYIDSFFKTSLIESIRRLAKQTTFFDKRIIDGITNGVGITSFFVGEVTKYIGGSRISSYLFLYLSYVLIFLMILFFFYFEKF
In the assay “PnsB1” the target is B2.
The assay “PnsL1” deals with B1.
The assay “PnsB2” has as its target B9.

As to B1, the binding result in the assay with NdhA is recorded as “binds”.
Consider B2, for which the binding result with NdhD and with NdhF was “binds” each time.
With B3, in the assay with PnsB1, the binding result is reported as “binds”.
Turning to B4, the binding result with NdhA and with PnsL1 was “binds” in each case.
For B5, in the assay with NdhD, the binding result is recorded as “binds”.
B6: the binding result with PnsB2 and with NdhF was “binds” each time.
Consider B7, for which the binding result with NdhF was “binds”.
Still for that read-out and setting: as for B8, the entry is “binds”.
Same read-out and setting: the result for B9 reads “binds”.
Consider B10, for which the binding result with PnsB1, in the assay with PnsB2 and with NdhF was “binds” in each case.
